B1: GST-BRCA1 fragment F2 (BRCA1 residues 260-553) (other)
chain: KYQGSSVSNLHVEPCGTNTHASSLQHENSSLLLTKDRMNVEKAEFCNKSKQPGLARSQHNRWAGSKETCNDRRTPSTEKKVDLNADPLCERKEWNKQKLPCSENPRDTEDVPWITLNSSIQKVNEWFSRSDELLGSDDSHDGESESNAKVADVLDVLNEVDEYSGSSEKIDLLASDPHEALICKSERVHSKSVESNIEDKIFGKTYRKKASLPNLSHVTENLIIGAFVTEPQIIQERPLTNKLKRKRRPTSGLHPEDFIKKADLAVQKTPEMINQGTNQTEQNGQVMNITNSGH
notes: Produced in bacteria; also called fragment 2; not shown: glutathione S-transferase (GST) fusion tag
B2: GST-BRCA1 fragment F5 (BRCA1 residues 1005-1313) (other)
chain: EHSMSPEREMGNENIPSTVSTISRNNIRENVFKEASSSNINEVGSSTNEVGSSINEIGSSDENIQAELGRNRGPKLNAMLRLGVLQPEVYKQSLPGSNCKHPEIKKQEYEEVVQTVNTDFSPYLISDNLEQPMGSSHASQVCSETPDDLLDDGEIKEDTSFAENDIKESSAVFSKSVQKGELSRSPSPFTHTHLAQGYRRGAKKLESSEENLSSEDEELPCFQHLLFGKVNNIPSQSTRHSTVATECLSKNTEENLLSLKNSLNDCSNQVILAKASQEHHLSEETKCSASLFSSQCSELEDLTANTNTQ
notes: Produced in bacteria; also called fragment 5; not shown: glutathione S-transferase (GST) fusion tag
B3: GST-BRCA1 fragment F1 (BRCA1 residues 1-324) (other)
chain: MDLSALRVEEVQNVINAMQKILECPICLELIKEPVSTKCDHIFCKFCMLKLLNQKKGPSQCPLCKNDITKRSLQESTRFSQLVEELLKIICAFQLDTGLEYANSYNFAKKENNSPEHLKDEVSIIQSMGYRNRAKRLLQSEPENPSLQETSLSVQLSNLGTVRTLRTKQRIQPQKTSVYIELGSDSSEDTVNKATYCSVGDQELLQITPQGTRDEISLDSAKKAACEFSETDVTNTEHHQPSNNDLNTTEKRAAERHPEKYQGSSVSNLHVEPCGTNTHASSLQHENSSLLLTKDRMNVEKAEFCNKSKQPGLARSQHNRWAGS
notes: Produced in bacteria; also called fragment 1; not shown: glutathione S-transferase (GST) fusion tag
B4: BRE (other)
chain: MSPEVALNRISPMLSPFISSVVRNGKVGLDATNCLRITDLKSGCTSLTPGPNCDRFKLHIPYAGETLKWDIIFNAQYPELPPDFIFGEDAEFLPDPSALQNLASWNPSNPECLLLVVKELVQQYHQFQCSRLRESSRLMFEYQTLLEEPQYGENMEIYAGKKNNWTGEFSARFLLKLPVDFSNIPTYLLKDVNEDPGEDVALLSVSFEDTEATQVYPKLYLSPRIEHALGGSSALHIPAFPGGGCLIDYVPQVCHLLTNKVQYVIQGYHKRREYIAAFLSHFGTGVVEYDAEGFTKLTLLLMWKDFCFLVHIDLPLFFPRDQPTLTFQSVYHFTNSGQLYSQAQKNYPYSPRWDGNEMAKRAKGCQGSRDACSPWEQVLAFAVAKTGCKLLQPQRNWPSSRGPPWRASEGERTAQ
notes: also called BRCC45; BRCC45/BRE
B5: GST-BRCA1 fragment F3 (BRCA1 residues 502-802) (other)
chain: LKRKRRPTSGLHPEDFIKKADLAVQKTPEMINQGTNQTEQNGQVMNITNSGHENKTKGDSIQNEKNPNPIESLEKESAFKTKAEPISSSISNMELELNIHNSKAPKKNRLRRKSSTRHIHALELVVSRNLSPPNCTELQIDSCSSSEEIKKKKYNQMPVRHSRNLQLMEGKEPATGAKKSNKPNEQTSKRHDSDTFPELKLTNAPGSFTKCSNTSELKEFVNPSLPREEKEEKLETVKVSNNAEDPKDLMLSGERVLQTERSVESSSISLVPGTDYGTQESISLLEVSTLGKAKTEPNKCV
notes: Produced in bacteria; also called fragment 3; not shown: glutathione S-transferase (GST) fusion tag
B6: GST-BRCA1 fragment F4 (BRCA1 residues 758-1064) (other)
chain: LQTERSVESSSISLVPGTDYGTQESISLLEVSTLGKAKTEPNKCVSQCAAFENPKGLIHGCSKDNRNDTEGFKYPLGHEVNHSRETSIEMEESELDAQYLQNTFKVSKRQSFAPFSNPGNAEEECATFSAHSGSLKKQSPKVTFECEQKEENQGKNESNIKPVQTVNITAGFPVVGQKDKPVDNAKCSIKGGSRFCLSSQFRGNETGLITPNKHGLLQNPYRIPPLFPIKSFVKTKCKKNLLEENFEEHSMSPEREMGNENIPSTVSTISRNNIRENVFKEASSSNINEVGSSTNEVGSSINEIGSS
notes: Produced in bacteria; also called fragment 4; not shown: glutathione S-transferase (GST) fusion tag

Experiments:
[1] = target: T1, Jab1/CSN5 subunit of signalosome, recombinant (UniProt Q92905 1-334, limits assumed); assay: protein-protein interaction assay with GST-BRCA1 fragments
T1 construct: Produced in recombinant form as a control JAMM domain protein; the construct is not described
T1 sequence (Q92905 whole entry, the tested form may be a part): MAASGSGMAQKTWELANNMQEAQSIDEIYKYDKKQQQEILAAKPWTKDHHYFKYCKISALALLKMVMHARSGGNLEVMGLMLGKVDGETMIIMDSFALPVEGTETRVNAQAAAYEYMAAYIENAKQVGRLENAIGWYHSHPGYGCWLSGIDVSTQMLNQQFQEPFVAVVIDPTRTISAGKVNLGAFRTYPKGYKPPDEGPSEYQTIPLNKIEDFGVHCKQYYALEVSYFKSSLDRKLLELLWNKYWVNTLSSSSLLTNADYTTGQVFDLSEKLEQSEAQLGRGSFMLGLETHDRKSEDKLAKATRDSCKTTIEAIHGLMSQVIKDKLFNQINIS
Experimental: (§1) Recombinant BRCA1 and BARD1 was purified as described (Chen, et al. (2002) J. Biol. Chem. 277:22085-22092). […] Gluthatione-sepharose beads (Pharmacia, Peapack, N.J.), previously equilibrated in binding buffer, were added to the samples and inverted for an additionnal 2 hours at 4° C. Beads were collected by centrifugation at 2000×g, 30 seconds, washed several times in binding buffer containing 500 mM KCl and 0.1% NP40 and resuspended in 2× SDS loading buffer. Proteins were resolved by SDS-PAGE and western blot analysis was performed using anti-FLAG® antibodies (SIGMA, St. Louis, Mo.).

[2] = target: T2, (His)6-FLAG®-BRCC36 protein (Homo sapiens, UniProt P46736 1-316); assay: GST pull-down: 5 µg (His)6-FLAG-BRCC36 with GST-BRCA1 fragment, anti-FLAG western blot
T2 construct: Produced in bacteria and purified; also called recombinant BRCC36; C6.1A; not shown: (His)6 and FLAG tags
T2 sequence (P46736 whole entry, the tested form may be a part): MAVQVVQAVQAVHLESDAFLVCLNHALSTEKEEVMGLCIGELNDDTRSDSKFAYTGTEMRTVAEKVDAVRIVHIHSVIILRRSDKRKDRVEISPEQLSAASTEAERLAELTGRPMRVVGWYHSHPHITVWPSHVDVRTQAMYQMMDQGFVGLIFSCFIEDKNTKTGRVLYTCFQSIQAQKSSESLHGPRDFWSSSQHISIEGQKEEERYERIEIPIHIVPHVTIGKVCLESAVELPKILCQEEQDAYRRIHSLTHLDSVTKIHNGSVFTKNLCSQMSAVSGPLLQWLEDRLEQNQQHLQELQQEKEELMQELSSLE
Experimental: as §1

truncated BRCA1 (1-509) = target: T3, truncated BRCA1 (1-509) (Homo sapiens (Human), UniProt P38398 1-509); assay: affinity purification of the truncated BRCA1 complex from a stable 293-derived cell line (co-purification; may be indirect)
T3 construct: Stably expressed in a 293-derived cell line; keeps the nuclear localization signal and the Ring domain; also called BRCA1 truncation

Row | Binder | binding result [1] | binding result [2] | binding result (truncated BRCA1 (1-509))
1 | B1 | no binding | no binding | –
2 | B2 | no binding | no binding | –
3 | B3 | no binding | – | –
4 | B4 | – | – | no binding
5 | B5 | no binding | – | –
6 | B6 | no binding | – | –

From US20040072268A1 (published 2004)
